Source: patent publication US20240116985A1 (published 2024)
Starred links: 1 amine or outer side, 2 acyl side, 3 side chain; linkers in the order of their positions; H or OH if unused. Positions of bridges follow the written chain, without caps; N, C: chain ends. Non-standard residues stand in square brackets, D forms with d. Primed or numbered codes have the meaning given here. PyrS2″ = (S)-3-amino-1-((pent-4-en-1-yloxy)carbonyl)pyrrolidine-3-carboxylic acid (stapling residue), C=CCCCOC(=O)N1CC[C@@](N[*:1])(C(=O)[*:2])C1; B5(4) = 2,2-bis(4-pentenyl)glycine = 2-amino-2-(pent-4-en-1-yl)hept-6-enoic acid (stitching residue), C=CCCCC(CCCC=C)(N[*:1])C(=O)[*:2]; PyrS2 = (S)-3-amino-1-((pent-4-en-1-yloxy)carbonyl)pyrrolidine-3-carboxylic acid, C=CCCCOC(=O)N1CC[C@@](N[*:1])(C(=O)[*:2])C1; (EtSSEt)AspE = (S)-2-amino-4-(2-(ethyldisulfaneyl)ethoxy)-4-oxobutanoic acid, CCSSCCOC(=O)C[C@H](N[*:1])C(=O)[*:2]; B5(19) = 2-amino-2-(pent-4-en-1-yl)hept-6-enoic acid (bis(4-pentenyl)glycine), C=CCCCC(CCCC=C)(N[*:1])C(=O)[*:2]; B5(3) = 2,2-bis(4-pentenyl)glycine (stitching residue), C=CCCCC(CCCC=C)(N[*:1])C(=O)[*:2]; B5 = 2-amino-2-(pent-4-en-1-yl)hept-6-enoic acid, C=CCCCC(CCCC=C)(N[*:1])C(=O)[*:2]; S6 = (S)-2-amino-2-methyloct-7-enoic acid, C=CCCCC[C@](C)(N[*:1])C(=O)[*:2]; Phe(4-CN) = N#Cc1ccc(C[C@H](N)C(=O)O)cc1; Bta = N[C@@H](Cc1csc2ccccc12)C(=O)O; αAllylPro = C=CC[C@@]1(C(=O)O)CCCN1; tBuAla = CC(C)(C)C[C@H](N)C(=O)O; 3Thi = N[C@@H](Cc1ccsc1)C(=O)O; S8 = C=CCCCCCC[C@](C)(N)C(=O)O; Aib = CC(C)(N)C(=O)O

T1: B-cat-Halo (beta-catenin HaloTag Nano-BRET construct) (UniProt P35222 1-781)
T1 sequence (looked up): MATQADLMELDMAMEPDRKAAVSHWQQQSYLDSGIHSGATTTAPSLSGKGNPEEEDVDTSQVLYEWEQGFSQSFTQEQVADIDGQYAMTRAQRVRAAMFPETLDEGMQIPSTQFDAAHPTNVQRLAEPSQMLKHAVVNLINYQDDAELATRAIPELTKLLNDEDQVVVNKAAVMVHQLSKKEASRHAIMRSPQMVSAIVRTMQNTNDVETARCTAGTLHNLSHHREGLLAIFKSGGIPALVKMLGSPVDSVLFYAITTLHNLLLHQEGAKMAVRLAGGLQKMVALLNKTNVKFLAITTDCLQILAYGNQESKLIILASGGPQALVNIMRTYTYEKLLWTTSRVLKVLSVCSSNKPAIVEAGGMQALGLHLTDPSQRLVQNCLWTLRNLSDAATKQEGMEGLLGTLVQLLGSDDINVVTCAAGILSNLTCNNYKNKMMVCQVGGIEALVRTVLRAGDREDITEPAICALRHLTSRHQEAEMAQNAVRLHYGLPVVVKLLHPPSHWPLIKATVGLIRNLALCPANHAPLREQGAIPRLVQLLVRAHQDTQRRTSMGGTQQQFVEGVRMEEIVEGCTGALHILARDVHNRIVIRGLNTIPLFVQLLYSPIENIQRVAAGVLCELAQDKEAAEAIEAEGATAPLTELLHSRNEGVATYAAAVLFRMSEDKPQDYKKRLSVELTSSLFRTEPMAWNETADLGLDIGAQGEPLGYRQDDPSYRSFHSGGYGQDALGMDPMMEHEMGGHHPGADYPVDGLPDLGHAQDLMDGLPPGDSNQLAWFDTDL

T2: B-cat-Halo (beta-catenin HaloTag construct expressed in HEK293 cells) (UniProt P35222 1-781)
T2 sequence (looked up): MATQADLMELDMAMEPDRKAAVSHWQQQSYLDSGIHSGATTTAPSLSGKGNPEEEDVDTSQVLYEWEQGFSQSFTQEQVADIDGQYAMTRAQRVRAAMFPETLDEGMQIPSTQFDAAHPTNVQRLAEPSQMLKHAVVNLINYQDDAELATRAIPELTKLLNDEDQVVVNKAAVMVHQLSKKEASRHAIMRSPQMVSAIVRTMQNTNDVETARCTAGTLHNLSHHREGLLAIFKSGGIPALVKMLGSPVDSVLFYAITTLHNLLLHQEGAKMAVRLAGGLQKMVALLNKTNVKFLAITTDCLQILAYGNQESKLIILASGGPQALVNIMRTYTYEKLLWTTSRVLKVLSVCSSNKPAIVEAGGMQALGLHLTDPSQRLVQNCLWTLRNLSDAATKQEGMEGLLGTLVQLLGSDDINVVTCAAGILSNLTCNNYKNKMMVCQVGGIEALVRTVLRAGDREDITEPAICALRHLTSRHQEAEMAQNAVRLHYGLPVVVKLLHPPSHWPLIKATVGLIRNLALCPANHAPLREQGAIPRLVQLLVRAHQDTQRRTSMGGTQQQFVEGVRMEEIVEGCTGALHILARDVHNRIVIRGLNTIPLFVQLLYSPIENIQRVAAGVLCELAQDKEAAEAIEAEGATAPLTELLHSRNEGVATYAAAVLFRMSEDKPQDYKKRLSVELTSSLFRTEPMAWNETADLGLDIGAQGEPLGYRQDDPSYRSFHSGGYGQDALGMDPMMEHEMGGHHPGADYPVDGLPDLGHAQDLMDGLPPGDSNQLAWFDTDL

T3: beta-catenin in DLD1 TCF/LEF luciferase reporter cells (UniProt P35222 1-781)
T3 sequence (looked up): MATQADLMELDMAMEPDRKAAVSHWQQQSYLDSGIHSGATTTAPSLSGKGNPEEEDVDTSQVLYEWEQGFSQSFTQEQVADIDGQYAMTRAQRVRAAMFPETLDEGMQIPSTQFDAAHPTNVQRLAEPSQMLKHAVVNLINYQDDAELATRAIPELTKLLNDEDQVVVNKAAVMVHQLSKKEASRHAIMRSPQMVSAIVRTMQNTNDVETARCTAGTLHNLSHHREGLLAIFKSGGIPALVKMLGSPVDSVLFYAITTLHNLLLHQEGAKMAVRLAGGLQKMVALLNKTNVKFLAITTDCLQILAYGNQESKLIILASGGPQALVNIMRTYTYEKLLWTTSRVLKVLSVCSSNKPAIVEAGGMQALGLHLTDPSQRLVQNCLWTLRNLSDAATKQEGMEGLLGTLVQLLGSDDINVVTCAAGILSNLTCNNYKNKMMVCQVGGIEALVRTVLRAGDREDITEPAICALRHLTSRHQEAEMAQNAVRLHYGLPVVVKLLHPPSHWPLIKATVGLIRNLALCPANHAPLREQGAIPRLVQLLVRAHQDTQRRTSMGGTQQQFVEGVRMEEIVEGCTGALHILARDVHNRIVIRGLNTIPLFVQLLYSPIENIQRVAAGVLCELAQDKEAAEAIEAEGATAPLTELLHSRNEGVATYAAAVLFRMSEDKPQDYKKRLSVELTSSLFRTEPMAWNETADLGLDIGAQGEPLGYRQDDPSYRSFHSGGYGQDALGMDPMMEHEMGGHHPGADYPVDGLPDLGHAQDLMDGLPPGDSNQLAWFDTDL

T4: full-length beta-Catenin (Uniprot ID P35222) (Homo sapiens (Human), UniProt P35222 2-781)
T4 construct: The assay protocols say only 'full-length'; No tag is stated, although the AlphaScreen kit is a Histidine (Nickel Chelate) kit; also called B-Catenin; bCat
T4 sequence: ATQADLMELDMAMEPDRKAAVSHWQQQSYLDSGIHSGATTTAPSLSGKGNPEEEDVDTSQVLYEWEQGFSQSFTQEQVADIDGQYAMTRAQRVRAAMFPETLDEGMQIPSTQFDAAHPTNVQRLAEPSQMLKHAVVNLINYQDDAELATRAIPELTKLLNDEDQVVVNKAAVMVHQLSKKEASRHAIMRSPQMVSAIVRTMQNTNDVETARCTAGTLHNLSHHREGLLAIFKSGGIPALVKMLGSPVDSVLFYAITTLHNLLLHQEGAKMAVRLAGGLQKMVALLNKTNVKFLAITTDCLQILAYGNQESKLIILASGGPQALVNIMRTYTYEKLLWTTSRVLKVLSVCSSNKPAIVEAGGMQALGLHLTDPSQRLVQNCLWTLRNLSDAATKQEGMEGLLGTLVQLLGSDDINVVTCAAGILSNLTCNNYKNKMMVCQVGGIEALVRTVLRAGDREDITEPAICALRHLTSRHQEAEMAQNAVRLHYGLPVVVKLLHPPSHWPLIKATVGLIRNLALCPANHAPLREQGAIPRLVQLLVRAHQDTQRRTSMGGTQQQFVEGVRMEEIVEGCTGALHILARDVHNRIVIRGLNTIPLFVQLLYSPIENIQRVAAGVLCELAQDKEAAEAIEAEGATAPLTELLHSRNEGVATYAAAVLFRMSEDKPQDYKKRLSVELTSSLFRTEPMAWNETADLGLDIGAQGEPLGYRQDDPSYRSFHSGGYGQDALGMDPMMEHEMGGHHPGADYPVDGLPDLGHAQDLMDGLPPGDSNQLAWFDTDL


Legend:
[1] = target: T1, B-cat-Halo (beta-catenin HaloTag …); assay: cell-based or functional assay
[2] = target: T2, B-cat-Halo (beta-catenin HaloTag …); assay: cell-based or functional assay
[3] = target: T3, beta-catenin in DLD1 TCF/LEF luciferase …; assay: cell-based or functional assay
[4] = target: T4, full-length beta-Catenin (Uniprot ID …); assay: AlphaScreen competition; peptide titrated against full-length beta-catenin + biotin-TCF4(10-53)
Experimental: Equal volume of the titrated peptide was added to the plate and incubated for 15 minutes at 20° C. Then 4 uL of donor and 4 uL acceptor beads at 10 ug/mL were added to the plate, for a 16 uL reaction pool and protected from light for 60 minutes at 20° C. prior to read. Reads were performed on a CLARIOstar plate reader (BMG Labtech) in duplicate, and data were fitted to a 1:1 binding model with hill slope using an in-house script. All provided concentrations are final concentrations.

[5] = target: T4, full-length beta-Catenin (Uniprot ID …); assay: fluorescence polarization competition; peptide titrated against full-length beta-catenin + 5FAM-TCF4(10-53) probe
Experimental: The plate was incubated protected from light for 60 minutes at 20° C. prior to read. Reads were performed on a CLARIOstar plate reader (BMG Labtech) in duplicate, and data were fitted to a 1:1 binding model with hill slope using an in-house script. All provided concentrations are final concentrations.

Row | NanoBRET Abs IC50 [1] [µM] | EC50 [5] [µM] | Binder | also measured
1 | 25.2 |  | Ac-[αAllylPro]D[tBuAla][B5(4)]D[(EtSSEt)AspE]AAFL[PyrS2″][3Thi][Bta]Q-NH2 (staple 1-4, 4-11) [I-1965] | 
2 | > 20 |  | Ac-[αAllylPro]D[tBuAla][S6]DDAAFL[Aib][3Thi][Bta]Q-NH2 (staple 1-4) [I-1978] | 
3 |  |  | Ac-[αAllylPro]D[tBuAla][B5(3)]DDAAFT[PyrS2″][3Thi][Bta]Q-NH2 (staple 1-4, 4-11) [I-809] | NanoBRET Abs IC50 [2]: 6.1 µM; DLD1 4% Abs IC50 [3]: 11.3 µM
4 |  | 5 | XDAXDDAAFVXFAQ (not fully specified; N-terminal Ac; C-terminal NH2; PL3 at 1, B5 at 4, S8 at 11 (stapled 1-4 and 4-11), Stapled peptide composition; Later-eluting isomer composition; also called Ac-PL3-Asp-Ala-B5-Asp-Asp-Ala-Ala-Phe-Val-S8-Phe-Ala-Gln-NH2) [I-358] | EC50 [4]: 10 µM
5 |  | 5 | Ac-[αAllylPro]DA[B5(19)]DDAAFV[S8][Phe(4-CN)][Bta]Q-NH2 (staple 1-4, 4-11, Stapled peptide composition; also called Ac-PL3-Asp-Ala-B5-Asp-Asp-Ala-Ala-Phe-Val-S8-4CNF-BztA-Gln-NH2) [I-359] | 
6 |  | 5 | XDAXDDAAFVXAWQ (not fully specified; N-terminal Ac; C-terminal NH2; PL3 at 1, B5 at 4, S8 at 11 (stapled 1-4 and 4-11), Stapled peptide composition; Earlier-eluting isomer composition; also called Ac-PL3-Asp-Ala-B5-Asp-Asp-Ala-Ala-Phe-Val-S8-Ala-Trp-Gln-NH2) [I-355] | EC50 [4]: 10 µM
7 | 25.6 |  | Ac-[αAllylPro][(EtSSEt)AspE][tBuAla][B5(4)]DDAAFL[PyrS2″][3Thi][Bta]Q-NH2 (staple 1-4, 4-11) [I-1963] | 
8 |  |  | Ac-[αAllylPro]D[tBuAla][B5]DDAAFL[PyrS2][3Thi][Bta]Q-NH2 (staple 1-4, 4-11) [I-801] | NanoBRET Abs IC50 [2]: 5.8 µM; DLD1 4% Abs IC50 [3]: 4.3 µM
9 |  | 5 | XDAXDDAAAVXFWQ (not fully specified; N-terminal Ac; C-terminal NH2; PL3 at 1, B5 at 4, S8 at 11 (stapled 1-4 and 4-11), Stapled peptide composition; Later-eluting isomer composition; also called Ac-PL3-Asp-Ala-B5-Asp-Asp-Ala-Ala-Ala-Val-S8-Phe-Trp-Gln-NH2) [I-354] | 
